{"source": "patent US20210356467", "key": {"[1]": {"target": "CK1a (P48729) expressed in-frame upstream to the N-CAT fragment (UniProt P48729)", "sequence (P48729 other isoform, or with tags, fused parts or gaps)": "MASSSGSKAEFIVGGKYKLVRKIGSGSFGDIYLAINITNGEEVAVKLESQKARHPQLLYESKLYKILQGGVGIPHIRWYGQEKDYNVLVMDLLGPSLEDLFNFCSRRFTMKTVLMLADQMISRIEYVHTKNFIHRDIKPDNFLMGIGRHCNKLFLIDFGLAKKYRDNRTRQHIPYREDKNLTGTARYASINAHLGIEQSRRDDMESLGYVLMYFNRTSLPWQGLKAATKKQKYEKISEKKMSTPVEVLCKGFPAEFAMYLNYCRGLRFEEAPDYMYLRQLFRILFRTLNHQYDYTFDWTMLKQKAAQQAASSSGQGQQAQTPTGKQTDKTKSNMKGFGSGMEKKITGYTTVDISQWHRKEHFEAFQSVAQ"}, "[2]": {"target": "GSPT1 (P15170) expressed in-frame upstream to the N-CAT fragment (UniProt P15170)", "sequence (P15170 other isoform, or with tags, fused parts or gaps)": "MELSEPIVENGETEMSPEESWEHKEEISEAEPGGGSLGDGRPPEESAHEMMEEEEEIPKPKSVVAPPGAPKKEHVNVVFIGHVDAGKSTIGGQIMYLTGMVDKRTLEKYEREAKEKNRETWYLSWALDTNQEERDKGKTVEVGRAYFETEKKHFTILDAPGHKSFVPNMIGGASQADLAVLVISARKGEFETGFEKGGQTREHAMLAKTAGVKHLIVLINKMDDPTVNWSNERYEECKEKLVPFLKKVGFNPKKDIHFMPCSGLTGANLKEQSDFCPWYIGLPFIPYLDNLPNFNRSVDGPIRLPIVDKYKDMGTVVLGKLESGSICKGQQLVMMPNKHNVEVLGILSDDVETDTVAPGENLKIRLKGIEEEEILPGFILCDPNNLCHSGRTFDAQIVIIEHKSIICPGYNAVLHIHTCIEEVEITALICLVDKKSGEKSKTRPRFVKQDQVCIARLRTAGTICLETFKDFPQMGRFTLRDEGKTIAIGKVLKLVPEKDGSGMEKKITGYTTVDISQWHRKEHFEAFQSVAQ"}, "[3]": {"target": "IKZF1 (Q13422) expressed in-frame upstream to the N-CAT fragment (UniProt Q13422)", "sequence (Q13422 other isoform, or with tags, fused parts or gaps)": "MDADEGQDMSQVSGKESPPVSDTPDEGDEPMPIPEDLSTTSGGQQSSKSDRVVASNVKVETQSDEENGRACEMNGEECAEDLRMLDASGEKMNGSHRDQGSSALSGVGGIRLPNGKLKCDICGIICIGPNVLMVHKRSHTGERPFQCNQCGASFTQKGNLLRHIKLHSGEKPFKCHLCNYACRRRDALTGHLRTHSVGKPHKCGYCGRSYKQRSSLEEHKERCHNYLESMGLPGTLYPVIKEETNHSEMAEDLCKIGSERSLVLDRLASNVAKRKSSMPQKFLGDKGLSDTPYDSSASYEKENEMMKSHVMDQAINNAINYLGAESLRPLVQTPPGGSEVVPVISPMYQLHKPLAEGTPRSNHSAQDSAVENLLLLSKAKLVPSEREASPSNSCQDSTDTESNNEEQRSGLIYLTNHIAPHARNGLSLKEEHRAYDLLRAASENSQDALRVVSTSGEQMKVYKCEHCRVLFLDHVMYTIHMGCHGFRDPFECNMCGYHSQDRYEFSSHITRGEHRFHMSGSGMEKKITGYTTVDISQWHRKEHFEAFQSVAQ"}}, "data": [{"substance": "Cereblon-E2 (Ubc4) fusion", "values": [{"measurement": "growth of E. coli (OD600) under chloramphenicol, split-CAT ubiquitylation selection, with Lenalidomide (LLD)", "setting": "[1]", "value": "Thalidomide and Lenalidomide (TLD/LLD) significantly promoted the growth of E. coli that express CK1a"}, {"measurement": "growth of E. coli (OD600) under chloramphenicol, split-CAT ubiquitylation selection, with Thalidomide (TLD)", "setting": "[1]", "value": "Thalidomide and Lenalidomide (TLD/LLD) significantly promoted the growth of E. coli that express CK1a"}, {"measurement": "growth of E. coli (OD600) under chloramphenicol, split-CAT ubiquitylation selection, with CC-885", "setting": "[2]", "value": "CC-885 significantly promoted the growth of E. coli that express GSPT1"}, {"measurement": "dose response of E. coli growth (OD600) to TLD and LLD, split-CAT selection", "setting": "[3]", "value": "the selection system maintains this well-known optimum characteristic response to TLD and LLD"}, {"measurement": "growth of E. coli (OD600) under chloramphenicol, split-CAT ubiquitylation selection, with Lenalidomide (LLD)", "setting": "[3]", "value": "Thalidomide and Lenalidomide (TLD/LLD) significantly promoted the growth of E. coli that express IKZF1"}, {"measurement": "growth of E. coli (OD600) under chloramphenicol, split-CAT ubiquitylation selection, with Thalidomide (TLD)", "setting": "[3]", "value": "Thalidomide and Lenalidomide (TLD/LLD) significantly promoted the growth of E. coli that express IKZF1"}]}]}
